This series in a line: yeast display, Sf9 membrane polyspecificity reagent, FACS + sequencing; frameworks hold sequencing errors. An outline of the steps:
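Using colony PCR, genes from sorted yeast display clones were amplified, then sequenced on MiSeq at 2 × 250 and filtered by CDR length. The clones had been stained with 10% biotinylated, detergent-solubilized Sf9 membrane reagent for 1 hour at 4 °C and sorted by FACS into low and high (top ~1%) gates on anti-HA and streptavidin fluorescence. Polyreactivity labels come from the gate of origin.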
In the case of “QVQLVESGGGLVQAGGSLRLSCAASGSTFPWNAMGWYRPAPGKERELVAAISSGGSTNYADSVKGRFTISRDNAKNTVYLQMNSLKPEDTAVYYCNAYYWSDSRGKYDYWGQGTQVTVSS”, the “polyreactivity (PSR sort gate)” value is “low polyreactivity”.

Take “HVQLQESGGGLVQAGGSLRLSCAASGSIFQATYMGWYRQAPGKEREFVASITYGSITNYADSVKGRFTIGRDNAKDTLYLQMNSLKPEDTAVYYCAVDRHYIPDFHYWGQGTQVTVSS”: the “polyreactivity (PSR sort gate)” value is “low polyreactivity”.

Turning to “QVQLVESGGGLVQAGGSLRLSCAASGSTFSVYGMGWYRQAPGKERELVAAISGSGSRTYYADSVKGRFTISRDNAKNTVYLQMNSLKPEDTAVYYCAAVRRLLQGRTMYYWGQGTQVTVSS”, the “polyreactivity (PSR sort gate)” value was “high polyreactivity”.

For the sequence “QVQLVESGGGLVQAGGSLRLSCAASGFIFRYYAMGWYRQAPGKERELVAAISGSGGSTYYADSVKGRFTISRDNAKNTVYLQMNSLKPEDTAVYYCNKGRGRVYGIYDYWGQGTQVTVSS”, the “polyreactivity (PSR sort gate)” value is “high polyreactivity”.

“QVQLVESGGGLVQAGGSLRLSCAASGRIFDWNTMGWYRQAPGKERELVAAISYDGSTYYADSVKGRFTISRDNAKNTVYLQMNSLKPEDTAVYYCNAYPLTQYFAQGYDYWGQGTQVTVSS”: the “polyreactivity (PSR sort gate)” value is on record as “low polyreactivity”.

In the case of “QVHLVESGGGLVQAGGSLRLSCAAYGRIFPLYTMGWYRQAPGKEREFVAAISRTGGRTYYADSVKGRFTISRDNAKNTVYLQMNSLKPEDTAVYYCAAPYFGKRQIREYYWGQGTQVTVSS”, the “polyreactivity (PSR sort gate)” value was “high polyreactivity”.

Take “QVQLVESGGGLVQAGGSLRLSCAASGFTFDSYDMGWYRQAPGKERELVAAITWSGGSTYYADSVKGRFTISRDNAKNTVYLQMYSLKPEDTAVYYCKADTGTYWVPWYHDGYDYWGEGTQVTVSS”: the “polyreactivity (PSR sort gate)” value was “low polyreactivity”.

“QVQLVESGGGLVQAGGSLRLSCAASGRTSSINAMGWYRKAPGKERELVAVITGGGRTSYADSVKGRFTISRDNAKNTVYLQMNSLKPEDTAVYYCNATRSYYGYYYWGQGTQVTVSS”: the “polyreactivity (PSR sort gate)” value is recorded as “high polyreactivity”.

For “QVQLVESGGGLVQAGGSLRLSCAASGGTLPKYAMGWYRQAPGKERELVARITWNDGTTYYADSVKGRFTISRDNAKNTVYLQMNSLKPEDTAVYYCNTDRAYWFLYPFSYYYWGQGTQVTVSS”, the “polyreactivity (PSR sort gate)” value was “low polyreactivity”.

For the sequence “QVQLVESGGGLVQAGGSLRLSCAASGSIFWGNAMGCYRQAPGKERELVASISDSGGSTYADSVKGRFTISRDNAKNTVYLQMNSLKPEDTAVYYCAADDWYSAGIRNWYYGGYDYWGQGTQVTVSS”, the “polyreactivity (PSR sort gate)” value is “low polyreactivity”.

For the sequence “QVQLVESWGGFVQAGGSLRLSCAASGSIFKGYVMGWYRQAPGKERELVAAISGSGGSTYYADSVKGRFTISRDNAKNTVYIQMNSLKPEDTAVYYCAARYRYWGGSGFKGFDYWGQGTQVTVSS”, the “polyreactivity (PSR sort gate)” value is recorded as “high polyreactivity”.

For “QDQIVESGGGVVQAGGSLRLSCASSGRIFYDYLGWNRQAPGKETELDADISSGGSTHYADSVKGRFTISRDNAKNTVYLQMNSLKGEDTAVYYCIAVLVLSYDKDWRLIEMDYWGQGTHVTVSS”, the “polyreactivity (PSR sort gate)” value was “low polyreactivity”.

Take “QVQLVESGGGLVQAGGSLRLSCAASGSIIYPYVMGWYRQAPGKERELVAAISASGGSTYYADSMKGRFTISRDNAKNTVYLQMNSLKPEDTGVYYCAKYYRFRDDYDYWGQGTQVTVSS”: the “polyreactivity (PSR sort gate)” value is “high polyreactivity”.

As for “QVQLVESGGGLVQAGGSLRLSCAASGLIFSSNAMGWYRQAPGKERELVAAISSRGGRTYYADSVKGRFTISRDNAKNTVYLQMNSLKPEDTAVYYCAKYFTEVSRHTYDYWGQVTQVTVSS”, the “polyreactivity (PSR sort gate)” value was “high polyreactivity”.

Take “QVQLHESGRGLVQAGGSLRLSCAATATISYAGPMGWYRQAPGKEREFVAGIGVGSNTNYADSVKGRYTIIRDNAKNTVYLQMNSLKPEDTAVYSCAVGGYAPLGRPYWGQGTQVTVSS”: the “polyreactivity (PSR sort gate)” value is reported as “low polyreactivity”.

“QVQLVESGGGLVQAGGSLRLSCAASGFTFREYAMGWYRQAPGKERELVAAIDWSGGSTYYADSVKGRFTISRDNAKNTVYLQMNRLKPEDTAVYYCNVDFYDWYVYLWYVDYDYCGQGTQVTVSS”: the “polyreactivity (PSR sort gate)” value was “high polyreactivity”.

In the case of “QVQLVESGGGLVQAGGSLRLSCAASGITFAVYAMGWYRQAPGKERELVAAITRGGGSTYYADSVKGRFSISRDNAKNTVYLQMNSLKPEHTAVYYCNADSIPEGNSRYSHFDYWGQGTQVTVSS”, the “polyreactivity (PSR sort gate)” value is reported as “low polyreactivity”.

With “QVQLVESGGGLVQAGCSLRLSCAASGRIFRLNAMGWYRQAPGKERELVAAISSSGGSTYYADSVKGRFTISRDNAKNTVYLQMNSLKPEDTAVSYCAKYPVGGYDYWGQGPQVTVSS”, the “polyreactivity (PSR sort gate)” value is listed as “low polyreactivity”.

With “QVQLVESGAGLFQAGGSLRLSCAASGSTFVSYAMGWYRQAPGKEREFVAAITWSGGSTYYADSVKGRFTISRDNAKNTVYLQMNSLKPEDTAVYYCARPYRGSPRYYYWGQGTQVTVSS”, the “polyreactivity (PSR sort gate)” value is given as “high polyreactivity”.

Consider “QVQLVESGGCLVQAGGSLRLSCAASGLIFRLYAMGWYRQAPGKERELVAAISVSGAITYYADSVKGRFTISRDKAKNTVYLQMNSLKPEDTAVYYCNAEAVFGRDGYVYWEVDYWGQGTQVTVSS”, for which the “polyreactivity (PSR sort gate)” value is recorded as “low polyreactivity”.

As for “QVQLVESGGGLVQEGGSLRLSCAASGFTFRQYAMGRSRQAPGKEMELVAAITKTGGSTYYADSVKGRFTISRDHAKNTVYLQMNSLKPEDPAVYYCNAARETRPRDYYWGQGTQVTVSS”, the “polyreactivity (PSR sort gate)” value was “low polyreactivity”.

As for “QVQVVESGGGLVQAGGSLRLICAASGRIFDSNAMGWYRQEPVKERELVARIDPGDDTNSADSVKGRFTISRDNAKNTLYLQMNSLKPEDTAVYYCATDPDYVLYRTAYYEYDYWGQGTQVTVSS”, the “polyreactivity (PSR sort gate)” value is given as “low polyreactivity”.

As for “QVQLRESGGGLVQAGGSLRLSCAASGRILYSYAMGWYRQAPGKERELVAAISWRGGPTYYADSVKGRFTISRDYAKNSVYLPMNSLKPEDTAVYYCAAEFYDLPWLYDYWGQGTQVTVSS”, the “polyreactivity (PSR sort gate)” value was “low polyreactivity”.

Regarding “QVQLVESGGGLDQAGGSLRLSCAASGRTFYIYTMGWYRQAPGKERELVAAISSSGDSTYYADSVKGRFTISRDNGKNTVYLQMNSLKPEDTAVYYCAAYATYPDEYWGEGTQVTVSS”, the “polyreactivity (PSR sort gate)” value is recorded as “low polyreactivity”.

With “QVQRVESGGGLVQAGGSLRLSCAASGFIFIRNAMGWYRQAPGKERELVAAISSGGRTYYADSVKGRFTISRDNAKNTVYLQMNSLQPEDTAVYYCATRPHRPRGHSVGQYDYWGQGTQVTVSS”, the “polyreactivity (PSR sort gate)” value is given as “high polyreactivity”.

Regarding “QVQLVESGGGLVQAGGSLRLSCAASGSIFYGYAMGWYRQAPGKERELVASITGSGGSTSYADSVKGRFTISRDNAKNTVYLQMNSLKPEDTAVYYCNTVLLQLYKLASGYDYWGQGTQVTVSS”, the “polyreactivity (PSR sort gate)” value is “high polyreactivity”.

Consider “QVQLVESGGGLVQAGGSLRLSCAASGSIFCSYAMGWYRPAPGKERELVAAITQRGGRTYYADSVKGRFTISRENAKNTVYLQMNSLKPEDTAVYYCAAKNRISRPSPYDYWGQGTQVTVSS”, for which the “polyreactivity (PSR sort gate)” value is “high polyreactivity”.

Consider “QVQLVESGGGLVQAGGSLRLSCAASGSIFGPNAMGWYRQAPGKERELVAAITSGSSTKYADSVKGRFTISRDNATNTVYLQMNSLKPEDTAVYYCAASGTSTWKYGYWGQGSQVTVSS”, for which the “polyreactivity (PSR sort gate)” value is listed as “low polyreactivity”.

Turning to “QVQLVESGGGLVQAGGSLRLSCAASGFTLFGYAMGWYRQAPGKERELVAAISKDGGSTYYADTVKGRFTISRDNAKNTVYLQMNSLKPEDTAVYYCAARVKRPQSGYDRRYGYWGQGTQVTVSS”, the “polyreactivity (PSR sort gate)” value was “high polyreactivity”.

Take “QVQLVESGGGLVQAGGSLRLSCAASGRILAPYVMGWYRQAPGKERELVAAISRSTGRTYYADSVKGRFTISRDNAKNTVYLQMNSLKPEDTAVYYCNRDVRVSLMGYWGQGTQVTVSS”: the “polyreactivity (PSR sort gate)” value is listed as “high polyreactivity”.

With “QVQLVEAGGGLVQAGGSLRLSGAASGFTLYANAMGWYRQAPGKERELVADISVSGSSTAYADSVKGRFTISRDNAKNTVYLQMNSLKPEDTAVYYCNADQGTRDSDYWGQGTQVTVSS”, the “polyreactivity (PSR sort gate)” value is recorded as “low polyreactivity”.

“QVQLVESGGGLVQAGGSLRLSCAASGRTFQDYALGWSRQAPGKEREFVADISDGGSTNYADSVKGRFTISRDNAKNTVYLQMNSLKPEVTAVYYCAADQYHGVGINFRSDYDYWGHGTQVTVSS”: the “polyreactivity (PSR sort gate)” value is reported as “low polyreactivity”.

For “QVQLVESGGGLVQAGGSLRLSCAASGSIIVYNAMGWYRQAPGKERELVAAITGRVGSTYYADSVKGRFTISRDNAKNTVYLQMNSMKPEDTAVYYCAARSYFKWWYAMDYWGQGTQVTVSS”, the “polyreactivity (PSR sort gate)” value was “high polyreactivity”.

For the sequence “QVQLVESGGGLVQAGGSLRLSCAASGFTFPRYAMGWYRQAPGKERELVAAITVGGGRTYYADSVKGRFTISRDNANNTVYLQMNSLKPEDTAVYYFAADSHASTYDYWGQGTQVTVSS”, the “polyreactivity (PSR sort gate)” value is recorded as “low polyreactivity”.

With “PVQLVESGGVLVQAGGILRLSCAASGFTFYLYGMGWYRRAPGKERELVAAISRSGGSTYYADSVKGRFTISRDNAKNTVYLQMNSLKPEDPAVYACAVDKQGSRRRIISDEMYYWGQGTQVTVSS”, the “polyreactivity (PSR sort gate)” value is reported as “high polyreactivity”.

Turning to “QVQLVESGGGLVQAGGSLRLSCAASGIIFLRNTMGWYRQAPGKERELVASISRRGGSTYYADSVKGRFTISRDNAKNTVYLQMNSLKPEDTAVYYCNKRSLEKGDYWGQGTQVTVTS”, the “polyreactivity (PSR sort gate)” value is reported as “high polyreactivity”.

As to “QDQLVESGGGLVQAGGSLRLSCAASGSTFTDYDMGWYRQAPGKERELVAAITSGGSTNYADSVKGRFTISRDNAKNTVYLQMNSLKPEDTAVYYCAAELRYYLYDVVYIVTYDYWGQGTQVTVSS”, the “polyreactivity (PSR sort gate)” value was “low polyreactivity”.

Take “QVQLVESGGGLVQAGGSLRLSCAASGSTFGSNAMGWYRQAPGKESELVAAIRWSGGSTYYADSVKGRFTISRDNAKNTVYLQMNSLKPEDTAVYYCNAVYGRQYRGYNYKYYYWGQGTQVTVSS”: the “polyreactivity (PSR sort gate)” value is listed as “high polyreactivity”.

With “QVQLVESGGGLVQAGGSLRLSCAASGRIFGSYAMGWYRQAPGKERELVAAITRSGGSTYYADSVKGRFTISRDNAKNTVYLQMNSLKPEDTAVYYCAARYGIRYAYFGRFDYWGQGTQVTVSS”, the “polyreactivity (PSR sort gate)” value was “high polyreactivity”.

On to “QVQQVESGGGLVQAGGSLRLSCAASGFIFFGYAMGWYRQARGKERELVAAITSGGSTYYADSVKGRFTISRDNAKNTVYLQMNSLKPEDTAVYYCAADNSGWWGTGYNYWGQGTQVTVSS”, for which the “polyreactivity (PSR sort gate)” value is given as “high polyreactivity”.

The values are drawn from the nanobody polyreactivity screen of Harvey et al. (2022).
